The values that follow come from paper PMC10122671, “IS21 family transposase cleaved donor complex traps two right-handed superhelical crossings”.

Data set [1] has as its target Geobacillus stearothermophilus IstA (IS5376 transposase, IS21 family) (Geobacillus stearothermophilus). The data set can be described thus: cryo-EM structure; IstA mixed 1:1.5 with the pre-cleaved right TIR DNA (5-nt 5' overhang), complex isolated by gel filtration; 50 mM HEPES pH 7.5, 150 mM NaCl, 5 mM MgCl2, 1 mM DTT, 0.005% Tween-20; 3.4 Å, C2 symmetry. For orientation: In gel filtration, larger molecules generally elute earlier.

Data set [2] concerns the target T1, IstA-MBP (Geobacillus stearothermophilus, UniProt Q45618 1-400).
T1 sequence: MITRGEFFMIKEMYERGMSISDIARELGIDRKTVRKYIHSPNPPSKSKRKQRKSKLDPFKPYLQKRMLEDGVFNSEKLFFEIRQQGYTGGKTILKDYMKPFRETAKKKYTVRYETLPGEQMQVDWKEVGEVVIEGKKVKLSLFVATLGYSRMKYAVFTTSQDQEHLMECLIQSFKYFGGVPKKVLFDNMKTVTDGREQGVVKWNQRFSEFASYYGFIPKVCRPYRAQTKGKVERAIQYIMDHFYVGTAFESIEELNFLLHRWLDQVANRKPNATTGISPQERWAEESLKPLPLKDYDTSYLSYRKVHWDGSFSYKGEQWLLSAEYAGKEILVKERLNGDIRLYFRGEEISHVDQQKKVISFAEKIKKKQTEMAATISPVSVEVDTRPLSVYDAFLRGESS
The data set can be described thus: fluorescence anisotropy; apparent Kd; Hill coefficient 3.6; 5 mM Mg2+; Fluorescence anisotropy: 50 mM HEPES pH 7.5, 150 mM NaCl, 5 mM MgCl2, 10% glycerol, 1 mM beta-mercaptoethanol, 0.1 mg/ml BSA, 5 nM DNA, 37 °C, 5 min. Conditions: protein: recombinant; tags: C-terminal TEV-cleavable MBP-His6; label: 5'-FAM on strand 1; blunt.

The next data set has as its target T2, IstA (Geobacillus stearothermophilus, UniProt Q45618 1-400).
T2 sequence: T1 sequence
In words: cryo-EM structure (3.4 A); 5 mM Mg2+; IstA tetramer with two DNA ends; Fluorescence anisotropy: 50 mM HEPES pH 7.5, 150 mM NaCl, 5 mM MgCl2, 10% glycerol, 1 mM beta-mercaptoethanol, 0.1 mg/ml BSA, 5 nM DNA, 37 °C, 5 min. Conditions: protein: recombinant; tags: MBP-His6 tag removed by TEV; 5' overhang 5 nt on strand 2; two duplex copies per tetramer. (Polarisation of emitted light reports the rotation of a fluorescent probe.)

Data set [3] has as its target T1, IstA-MBP. In words: fluorescence anisotropy; apparent Kd; Hill coefficient 1.2; 5 mM Mg2+; Fluorescence anisotropy: 50 mM HEPES pH 7.5, 150 mM NaCl, 5 mM MgCl2, 10% glycerol, 1 mM beta-mercaptoethanol, 0.1 mg/ml BSA, 5 nM DNA, 37 °C, 5 min. The following applies: protein: recombinant; tags: C-terminal TEV-cleavable MBP-His6; label: 5'-FAM on strand 1; blunt.
For data set [4], the target named is T1, IstA-MBP. The data set can be described thus: fluorescence anisotropy; apparent Kd; Hill coefficient 1.5; 5 mM Mg2+; Fluorescence anisotropy: 50 mM HEPES pH 7.5, 150 mM NaCl, 5 mM MgCl2, 10% glycerol, 1 mM beta-mercaptoethanol, 0.1 mg/ml BSA, 5 nM DNA, 37 °C, 5 min. Conditions: protein: recombinant; tags: C-terminal TEV-cleavable MBP-His6; label: 5'-FAM on strand 1; blunt.

The target of data set [5] is T1, IstA-MBP. In words: fluorescence anisotropy; apparent Kd; Hill coefficient 2.2; 5 mM Mg2+; Fluorescence anisotropy: 50 mM HEPES pH 7.5, 150 mM NaCl, 5 mM MgCl2, 10% glycerol, 1 mM beta-mercaptoethanol, 0.1 mg/ml BSA, 5 nM DNA, 37 °C, 5 min. The following applies: protein: recombinant; tags: C-terminal TEV-cleavable MBP-His6; label: 5'-FAM on strand 1; blunt.

As to “Geobacillus stearothermophilus IstA (IS5376 transposase, IS21 family) (enzyme)”, in data set [1], the stoichiometry N was found to be 4.

B1: R1-R2 (pre-cleaved full right TIR) (dsDNA)
DNA 1: CCTTCTGGGGAATTTTAAACCGGCGATTTTGGGGAAAAAATAATCGGCCTTGACA
DNA 2: TGTCAAGGCCGATTATTTTTTCCCCAAAATCGCCGGTTTAAAATTCCCCAGAAGG
As for B1, in the data set with IstA-MBP [2], the Kd is 125 nM.

B2: Pre-cleaved right TIR with 5 nt 5' overhang (dsDNA)
DNA 1: B1 DNA 1
DNA 2: ATTCATGTCAAGGCCGATTATTTTTTCCCCAAAATCGCCGGTTTAAAATTCCCCAGAAGG
Consider B2, for which the binding result in the data set with IstA is “binds”.

B3: R1 (27 bp right TIR) (dsDNA)
DNA 1: TTGGGGAAAAAATAATCGGCCTTGACA
DNA 2: TGTCAAGGCCGATTATTTTTTCCCCAA
As to B3, in the data set with IstA-MBP [3], the Kd was 176 nM.

B4: Rd60 (dsDNA)
DNA 1: TGCTTGCGATGATCCGACGTGTTAGCCACGCTGACTAGTTATGCCATGCCTCCCTTCAGG
DNA 2: CCTGAAGGGAGGCATGGCATAACTAGTCAGCGTGGCTAACACGTCGGATCATCGCAAGCA
For the molecule B4, in the data set with IstA-MBP [4], the Kd is 191 nM.

B5: Rd27 (dsDNA)
DNA 1: TGCTAACACGTCGGATCATCGCAAGCA
DNA 2: TGCTTGCGATGATCCGACGTGTTAGCA
Consider B5, for which the Kd in the data set with IstA-MBP [5] was 121 nM.

One may read the stoichiometry N as the number of molecules, sites or subunits per partner or assembly.
